Measured values published in paper PMC4980809 (2016).

Biological target: F-actin (skeletal muscle actin) (Oryctolagus cuniculus, UniProt P68135)
Assay: actin co-sedimentation assay

B1: Alpha-actinin-2 19-266 (protein)
chain: YMIQEEEWDRDLLLDPAWEKQQRKTFTAWCNSHLRKAGTQIENIEEDFRNGLKLMLLLEVISGERLPKPDRGKMRFHKIANVNKALDYIASKGVKLVSIGAEEIVDGNVKMTLGMIWTIILRFAIQDISVEETSAKEGLLLWCQRKTAPYRNVNIQNFHTSWKDGLGLCALIHRHRPDLIDYSKLNKDDPIGNINLAMEIAEKHLDIPKMLDAEDIVNTPKPDERAIMTYVSCFYHAFAGAEQAETAA
Kd: 7.5 µM
